The text below walks through data of publication PMC5911420 (DNA repair, 2018).

Read-outs that look alike come from different tables or passages of the source.

Holding throughout (experiment): SEC-MALS
In general terms: Size exclusion chromatography separates by hydrodynamic size, large species first.

The series “SEC-MALS” deals with the molecule itself.
For series [1], the target named is T1, full-length NEIL1 DNA glycosylase, His-tagged (human, UniProt Q96FI4 1-390).
The target in series [2] is T1, full-length NEIL1 DNA glycosylase, …. This is another data set of the same source.

T1 sequence (Q96FI4 whole entry): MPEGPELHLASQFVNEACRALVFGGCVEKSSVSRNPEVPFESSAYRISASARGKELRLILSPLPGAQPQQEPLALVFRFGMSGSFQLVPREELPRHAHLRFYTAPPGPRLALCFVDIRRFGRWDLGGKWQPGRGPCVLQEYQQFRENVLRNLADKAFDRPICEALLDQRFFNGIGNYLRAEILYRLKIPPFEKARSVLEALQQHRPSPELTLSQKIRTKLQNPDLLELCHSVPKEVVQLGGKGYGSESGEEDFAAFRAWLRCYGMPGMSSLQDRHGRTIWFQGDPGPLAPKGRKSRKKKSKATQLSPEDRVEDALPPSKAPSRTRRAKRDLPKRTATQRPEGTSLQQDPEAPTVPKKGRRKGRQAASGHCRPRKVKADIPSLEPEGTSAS

B1: human mitochondrial single-stranded DNA binding protein, purified recombinant (natural protein, UniProt Q04837 17-148, looked up)
chain: ESETTTSLVLERSLNRVHLLGRVGQDPVLRQVEGKNPVTIFSLATNEMWRSGDSEVYQLGDVSQKTTWHRISVFRPGLRDVAYQYVKKGSRIYLEGKIDYGEYMDKNNVRRQATTIIADNIIFLSDQTKEKE
On to B1, for which the “stoichiometry N” value was 4 in “SEC-MALS”, 1 mtSSB tetramer per NEIL1 (with one DNA) in series [1] and 1 mtSSB monomer per NEIL1 in series [2].
